{"source": "paper PMC8948829", "about": "“The Escherichia coli Amino Acid Uptake Protein CycA: Regulation of Its Synthesis and Practical Application in l-Isoleucine Production”", "binders": {"B1": {"name": "PcycA fragment 2 (73 bp) (dsDNA)", "DNA 1": "CAAAGACCCCGTAAGCGTGTATTTTTGTGAGCTGTTTCGCGTTATCACCGTGATATGACACTCACTTTAAACA", "DNA 2": "TGTTTAAAGTGAGTGTCATATCACGGTGATAACGCGAAACAGCTCACAAAAATACACGCTTACGGGGTCTTTG"}}, "biological_target": "Crp (CRP, cAMP receptor protein) (Escherichia coli (purified from strain …, UniProt P0ACJ8 1-210))", "sequence (P0ACJ8 whole entry)": "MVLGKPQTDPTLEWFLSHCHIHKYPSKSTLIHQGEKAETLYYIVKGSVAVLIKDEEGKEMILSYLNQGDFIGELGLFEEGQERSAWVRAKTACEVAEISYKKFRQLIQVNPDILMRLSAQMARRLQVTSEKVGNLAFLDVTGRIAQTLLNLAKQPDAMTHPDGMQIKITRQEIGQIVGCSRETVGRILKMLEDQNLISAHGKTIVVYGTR", "test": "EMSA; 20 uM cAMP; 12 ng Crp, 50 ng probe; 10 mM Tris-HCl pH 7.5, 1 mM EDTA, 100 mM KCl, 1 mM DTT, BSA (printed 10 g/mL), 5% glycerol, 20 uM cAMP, room temperature 30 min; 6% native PAGE, 1x TAE, 4 C", "settings": "protein: recombinant; tags: none (native His residues used for Ni-NTA); chain copies: 2; label: 5'-TAMRA on strand 2 (primer P11); blunt", "data": [{"binder": "B1", "values": [{"measurement": "binding result", "result": "binds"}]}]}
